From patent publication US20100311648A1 come the findings set out here.

In assay [1] the target is human melanocortin-4 receptor (human) (UniProt P32245). In words: [I125]-NDP-α-MSH competition, hMC4-R HEK-293 membranes.
Assay [2] has the same target. The experiment in a line: cell-based or functional assay.
Assay [3] deals with melanocortin-1 receptor (mouse (B-16 melanoma cells); in some instances human (hMC1-R)) (UniProt Q01727). In words: [I125]-NDP-α-MSH competition, MC1-R membranes.

pKi: −log10 of the molar value.

Sequence of melanocortin-1 receptor (mouse (B-16 melanoma cells); in some instances human (hMC1-R)) (Q01727 whole entry): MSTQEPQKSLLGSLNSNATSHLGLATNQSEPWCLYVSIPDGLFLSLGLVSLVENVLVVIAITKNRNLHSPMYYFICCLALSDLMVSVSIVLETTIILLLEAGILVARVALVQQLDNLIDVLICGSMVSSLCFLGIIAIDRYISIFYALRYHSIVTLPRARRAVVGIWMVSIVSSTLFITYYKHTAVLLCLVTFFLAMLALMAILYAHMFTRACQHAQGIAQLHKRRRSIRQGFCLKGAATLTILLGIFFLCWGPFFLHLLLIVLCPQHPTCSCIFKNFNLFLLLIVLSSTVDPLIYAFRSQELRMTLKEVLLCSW
Sequence of human melanocortin-4 receptor (human) (P32245 whole entry): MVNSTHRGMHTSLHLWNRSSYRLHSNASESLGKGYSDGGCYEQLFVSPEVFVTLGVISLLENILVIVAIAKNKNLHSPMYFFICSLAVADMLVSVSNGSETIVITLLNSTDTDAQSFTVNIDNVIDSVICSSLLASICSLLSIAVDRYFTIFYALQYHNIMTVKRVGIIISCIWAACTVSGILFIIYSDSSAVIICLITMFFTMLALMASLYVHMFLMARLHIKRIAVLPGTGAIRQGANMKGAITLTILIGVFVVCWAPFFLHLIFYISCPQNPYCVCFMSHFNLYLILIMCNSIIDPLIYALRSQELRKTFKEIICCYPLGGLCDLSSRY

Usually pKi stands for the negative decadic logarithm of the Ki, by convention in mol/L. In assay [1], “Ac-Arg-cyclo(Glu-Dab(Acetyl)-D-Phe(2-Cl)-Arg-Trp-Orn)-NH2 (peptide)” had a pKi of 7.96. In assay [2], the EC50, cAMP, 0.1 ng/mL Doxycycline stood at 5 nM; the EC50, cAMP, 10 ng/mL Doxycycline was 0.3 nM; the Intrinsic Activity, cAMP, 0.1 ng/mL Doxycycline is 41%; the Intrinsic Activity, cAMP, 10 ng/mL Doxycycline is 98%. In assay [3], this substance gave a negative logarithm of the Ki (pKi) of 7.52.

In assay [1], “Ac-Arg-cyclo(Glu-Met(O2)-D-Phe(4-F)-Arg-Trp-Orn)-NH2 (peptide)” showed a pKi of 8.70. In assay [2], this substance returned an EC50, cAMP, 0.1 ng/mL Doxycycline of 0.85 nM; an EC50, cAMP, 10 ng/mL Doxycycline of 0.075 nM; an Intrinsic Activity, cAMP, 0.1 ng/mL Doxycycline of 55%; an Intrinsic Activity, cAMP, 10 ng/mL Doxycycline of 91%. In addition, in assay [3], the pKi is 7.48.

Substance “Ac-Arg-cyclo(Glu-Dab-D-Phe(3-F)-Arg-Trp-Orn)-NH2 (peptide)” gave a pKi in assay [1] of 8.70. In assay [2], this substance showed an EC50, cAMP, 0.1 ng/mL Doxycycline of 0.45 nM; an EC50, cAMP, 10 ng/mL Doxycycline of 0.17 nM; an Intrinsic Activity, cAMP, 0.1 ng/mL Doxycycline of 77%; an Intrinsic Activity, cAMP, 10 ng/mL Doxycycline of 94%. For the same substance, the pKi in assay [3] is 8.70.

As to “Ac-Arg-cyclo(Glu-Dab-D-Phe(4-F)-Arg-Trp-Orn)-NH2 (peptide)”, in assay [1], the pKi is 9.60. In assay [2], this substance gave an EC50, cAMP, 0.1 ng/mL Doxycycline of 0.065 nM; an EC50, cAMP, 10 ng/mL Doxycycline of 0.06 nM; an Intrinsic Activity, cAMP, 0.1 ng/mL Doxycycline of 83%; an Intrinsic Activity, cAMP, 10 ng/mL Doxycycline of 90%. Further, in assay [3], the pKi was 9.30.

As to “Ac-Arg-cyclo(Glu-Dab-D-Phe(3,4-diCl)-Arg-Trp-Orn)-NH2 (peptide)”, in assay [1], the pKi is 10.26. For the same substance, in assay [2], the EC50, cAMP, 10 ng/mL Doxycycline was determined as 0.38 nM; the Intrinsic Activity, cAMP, 0.1 ng/mL Doxycycline turned out to be 5%; the Intrinsic Activity, cAMP, 10 ng/mL Doxycycline worked out at 92%. Besides, the pKi in assay [3] was 9.70.

Consider “Ac-Arg-cyclo(Glu-Dab-D-Phe(4-CN)-Arg-Trp-Orn)-NH2 (peptide)”, for which the pKi in assay [1] is 9.08. Further, in assay [2], the EC50, cAMP, 0.1 ng/mL Doxycycline is 0.3 nM; the EC50, cAMP, 10 ng/mL Doxycycline is 0.135 nM; the Intrinsic Activity, cAMP, 0.1 ng/mL Doxycycline turned out to be 48%; the Intrinsic Activity, cAMP, 10 ng/mL Doxycycline was 100%. Further, the pKi in assay [3] is 8.30.

With “Ac-D-Arg-cyclo(Orn-His-D-Phe(3,4-diF)-Arg-Trp-Glu)-NH2 (peptide)”, in assay [1], the pKi is 9.60. In assay [2], this substance had an EC50, cAMP, 0.1 ng/mL Doxycycline of 0.075 nM; an EC50, cAMP, 10 ng/mL Doxycycline of 0.075 nM; an Intrinsic Activity, cAMP, 0.1 ng/mL Doxycycline of 56%; an Intrinsic Activity, cAMP, 10 ng/mL Doxycycline of 92%. The substance further gave a pKi in assay [3] of 9.15.

“Ac-Arg-cyclo(Glu-Orn-D-Phe(2-Cl)-Arg-Trp-Orn)-OH (peptide)” had a pKi in assay [1] of 8.10. Moreover, in assay [2], the EC50, cAMP, 0.1 ng/mL Doxycycline came to 2 nM; the EC50, cAMP, 10 ng/mL Doxycycline turned out to be 0.235 nM; the Intrinsic Activity, cAMP, 0.1 ng/mL Doxycycline turned out to be 74%; the Intrinsic Activity, cAMP, 10 ng/mL Doxycycline was 93%. Also, the pKi in assay [3] was 8.10.

On to “Ac-Arg-cyclo(Glu-Dab-D-Phe(4-OMe)-Arg-Trp-Orn)-NH2 (peptide)”, for which, in assay [1], the pKi is 9.60. Further, in assay [2], the EC50, cAMP, 0.1 ng/mL Doxycycline amounted to 0.15 nM; the EC50, cAMP, 10 ng/mL Doxycycline was 0.16 nM; the Intrinsic Activity, cAMP, 0.1 ng/mL Doxycycline amounted to 28%; the Intrinsic Activity, cAMP, 10 ng/mL Doxycycline stood at 97%. This substance had a pKi in assay [3] of 9.82.

“Ac-Arg-cyclo(Glu-Hyp-D-Phe(2-Cl)-Arg-Trp-Orn)-NH2 (peptide)” gave a pKi in assay [1] of 9.00. Besides, in assay [2], the EC50, cAMP, 0.1 ng/mL Doxycycline stood at 1 nM; the EC50, cAMP, 10 ng/mL Doxycycline was 0.153 nM; the Intrinsic Activity, cAMP, 0.1 ng/mL Doxycycline turned out to be 41%; the Intrinsic Activity, cAMP, 10 ng/mL Doxycycline was determined as 98%. The substance further showed a pKi in assay [3] of 6.84.

As for “Ac-Arg-cyclo(Glu-Hyp-D-Phe(4-CN)-Arg-Trp-Orn)-NH2 (peptide)”, the negative-log Ki (pKi) in assay [1] was 8.70. In assay [2], the EC50, cAMP, 10 ng/mL Doxycycline worked out at 0.5 nM; the Intrinsic Activity, cAMP, 0.1 ng/mL Doxycycline amounted to 8%; the Intrinsic Activity, cAMP, 10 ng/mL Doxycycline came out at 93%. Besides, the pKi in assay [3] was 6.06.

“Ac-D-Arg-cyclo(Orn-His-D-Phe(4-F)-Arg-Trp-Glu)-NH2 (peptide)”: the pKi in assay [1] is 9.19. In assay [2], the EC50, cAMP, 0.1 ng/mL Doxycycline came out at 0.25 nM; the EC50, cAMP, 10 ng/mL Doxycycline was 0.095 nM; the Intrinsic Activity, cAMP, 0.1 ng/mL Doxycycline came out at 89%; the Intrinsic Activity, cAMP, 10 ng/mL Doxycycline came out at 100%. The pKi in assay [3] was 9.00.

In turn, “Ac-Arg-cyclo(Glu-Dab-D-Phe(2,4-diCl)-Arg-Trp-Orn)-NH2 (peptide)” showed a pKi in assay [1] of 10.26. In assay [2], this substance gave an EC50, cAMP, 10 ng/mL Doxycycline of 0.245 nM; an Intrinsic Activity, cAMP, 0.1 ng/mL Doxycycline of 11%; an Intrinsic Activity, cAMP, 10 ng/mL Doxycycline of 100%. Moreover, the pKi in assay [3] was 9.30.

For the substance “Ac-Arg-cyclo(Glu-Orn-D-Phe(3-Cl)-Arg-Trp-Orn)-OH (peptide)”, the pKi in assay [1] was 7.70. In assay [2], this substance registered an EC50, cAMP, 0.1 ng/mL Doxycycline of 10 nM; an EC50, cAMP, 10 ng/mL Doxycycline of 0.8 nM; an Intrinsic Activity, cAMP, 0.1 ng/mL Doxycycline of 28%; an Intrinsic Activity, cAMP, 10 ng/mL Doxycycline of 98%. Further, in assay [3], the pKi was 7.64.

In assay [1], “Ac-Arg-cyclo(Glu-Hyp-D-Phe(4-F)-Arg-Trp-Orn)-NH2 (peptide)” gave a pKi of 9.00. In assay [2], this substance returned an EC50, cAMP, 0.1 ng/mL Doxycycline of 0.45 nM; an EC50, cAMP, 10 ng/mL Doxycycline of 0.14 nM; an Intrinsic Activity, cAMP, 0.1 ng/mL Doxycycline of 62%; an Intrinsic Activity, cAMP, 10 ng/mL Doxycycline of 95%. The pKi in assay [3] was 7.05.

Turning to “Ac-Arg-cyclo(Glu-Dab-D-Phe(3-CN)-Arg-Trp-Orn)-NH2 (peptide)”, in assay [1], the pKi was 7.48. In assay [2], this substance came in with an EC50, cAMP, 0.1 ng/mL Doxycycline of 37 nM; an EC50, cAMP, 10 ng/mL Doxycycline of 2 nM; an Intrinsic Activity, cAMP, 0.1 ng/mL Doxycycline of 29%; an Intrinsic Activity, cAMP, 10 ng/mL Doxycycline of 100%. The same substance gave a negative-log Ki (pKi) in assay [3] of 7.37.

For the substance “Ac-D-Arg-cyclo(Orn-His-D-Phe(4-CN)-Arg-Trp-Glu)-NH2 (peptide)”, in assay [1], the pKi is 9.22. In assay [2], the EC50, cAMP, 0.1 ng/mL Doxycycline is 0.325 nM; the EC50, cAMP, 10 ng/mL Doxycycline was determined as 0.2 nM; the Intrinsic Activity, cAMP, 0.1 ng/mL Doxycycline was 31%; the Intrinsic Activity, cAMP, 10 ng/mL Doxycycline stood at 99%. The same substance showed a pKi in assay [3] of 8.22.

In assay [1], “Ac-Arg-cyclo(Glu-Dab-D-Phe(4-Cl)-Arg-Trp-Orn)-NH2 (peptide)” showed a pKi of 10.10. Besides, in assay [2], the EC50, cAMP, 0.1 ng/mL Doxycycline turned out to be 0.07 nM; the EC50, cAMP, 10 ng/mL Doxycycline amounted to 0.16 nM; the Intrinsic Activity, cAMP, 0.1 ng/mL Doxycycline is 28%; the Intrinsic Activity, cAMP, 10 ng/mL Doxycycline turned out to be 100%. Further, the pKi in assay [3] is 9.52.

Consider “Ac-Arg-cyclo(Glu-Dab-D-Phe(2-F)-Arg-Trp-Orn)-NH2 (peptide)”, for which, in assay [1], the pKi is 9.15. In addition, in assay [2], the EC50, cAMP, 0.1 ng/mL Doxycycline was 0.09 nM; the EC50, cAMP, 10 ng/mL Doxycycline was determined as 0.035 nM; the Intrinsic Activity, cAMP, 0.1 ng/mL Doxycycline is 91%; the Intrinsic Activity, cAMP, 10 ng/mL Doxycycline amounted to 89%. This substance showed a pKi in assay [3] of 9.10.

Consider “Ac-Arg-cyclo(Glu-Dab-D-Phe(3-CF3)-Arg-Trp-Orn)-NH2 (peptide)”, for which, in assay [1], the pKi was 9.02. In assay [2], this substance had an EC50, cAMP, 0.1 ng/mL Doxycycline of 8 nM; an EC50, cAMP, 10 ng/mL Doxycycline of 0.4 nM; an Intrinsic Activity, cAMP, 0.1 ng/mL Doxycycline of 16%; an Intrinsic Activity, cAMP, 10 ng/mL Doxycycline of 93%. For the same substance, the pKi in assay [3] is 8.05.

As for “Ac-Arg-cyclo(Glu-Hyp-D-Phe(3-Cl)-Arg-Trp-Orn)-NH2 (peptide)”, the pKi in assay [1] was 8.70. Further, in assay [2], the EC50, cAMP, 10 ng/mL Doxycycline was 0.55 nM; the Intrinsic Activity, cAMP, 0.1 ng/mL Doxycycline amounted to 6%; the Intrinsic Activity, cAMP, 10 ng/mL Doxycycline turned out to be 90%. The substance also had a pKi in assay [3] of 6.37.

“Ac-Arg-cyclo(Glu-Thr(Bzl)-D-Phe(2-Cl)-Arg-Trp-Orn)-NH2 (peptide)” had a pKi in assay [1] of 9.46. Also, in assay [2], the EC50, cAMP, 0.1 ng/mL Doxycycline amounted to 0.37 nM; the EC50, cAMP, 10 ng/mL Doxycycline was 0.157 nM; the Intrinsic Activity, cAMP, 0.1 ng/mL Doxycycline is 30%; the Intrinsic Activity, cAMP, 10 ng/mL Doxycycline was found to be 93%. In assay [3], this substance gave a pKi of 7.92.
